# According to publication PMC4618611, “IscR of Rhodobacter sphaeroides functions as repressor of genes for iron-sulfur metabolism and represents a new type of iron-sulfur-binding protein” (MicrobiologyOpen, 2015):
# “And” between values parts separate entries of the source, which are not always exact repeats. Equal entries are not always repeated.
# B1: IscR of Rhodobacter sphaeroides (His-tagged recombinant IscR) (natural protein, UniProt Q3J0R9 1-155, looked up)
# chain: MKLSTKGRYAMVALVDLALAQKSGNELVSLAEVSKRQDISLPYLEQLFVKLRRAGLVEAVRGPGGGYKLARPAESIRVSEIMEAVEETVNAMHTGAGASGGVSGSRAQSLTNRLWEGLSAHVYVFLHQTRLSDIIKNEMRPCPAVPALFRVVDED
# notes: IscR, Rhodobacter sphaeroides 2.4.1, locus RSP_0443 (KEGG), 155 amino acid residues; the coding region of iscR was amplified and cloned into pQE30; also called His-tagged IscR; RSP_0443; source: E. coli M15 (pQE30::iscR), overexpressed, purified (Ni-NTA)
# Target: the molecule itself
# Assay: SEC; gel filtration of the purified protein on a Superdex 200 16/60 column; aerobic conditions; data not shown
protein,measurement,value
B1,stoichiometry N,2 and 4
